Laboratory results reported in patent US20090130697A1 (COLORADO STATE UNIVERSITY RESEARCH FOUNDATION, published 2009).

Molecular target: FLS:Trg:EnvZ:AHK4 hybrid transmembrane histidine kinase (FLS2 plant leader, Trg extracellular domain, EnvZ, …)
Test: cell-based or functional assay

B1: SS-TNT, computationally designed TNT receptor (sensor protein): PEX secretory sequence fused to the periplasmic ribose binding protein engineered to bind TNT (designed binder)
chain: MERPFGCFFILLLISYTVVAKDTIALVVSTLNSPFLVSLKDGAQKEADKLGYNLVVLDSQNNPAKELANVQDLTVRGTKILLINPTDSDAVGNAVKMANQANIPVITLSSQATKGEVVSHIASDNVLGGKIAGDYIAKKAGEGAKVIELQGIAGTSSARESGEGFQQAVAAHKFNVLASQPADIDRIKGLNVMQNLLTAHPDVQAVFAQFDEMALGALRALQTAGKSDVMVVGFSGTPDGEKAVNDGKLAATIASLPDQIGAKGVETADKVLKGEKVQAKYPVDLKLVVKQDYKDDDDK
GUS expression from the ARR5 promoter in transgenic Arabidopsis in response to TNT: ~2 fold
